Measured values from patent US20210347848A1 (ALX ONCOLOGY, published 2021).
Where a chain is given by its changes, count along the chain named. Like-named read-outs stand apart in the source and are kept apart here.

T1: mouse CD47 (mouse, UniProt Q61735 19-140, limits assumed)
T1 construct: Soluble analyte in SPR; construct not described
T1 sequence (looked up): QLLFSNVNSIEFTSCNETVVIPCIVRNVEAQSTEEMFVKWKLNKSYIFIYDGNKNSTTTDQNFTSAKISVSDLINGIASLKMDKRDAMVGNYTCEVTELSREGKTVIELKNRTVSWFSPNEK

B1: Decoy polypeptide E (Fc fusion)
chain: EEELQIIQPEKLLLVTVGKTATLHCTITSLFPVGPIQWFRGAGPGRVLIYNQRDGPFPRVTTVSDGTKRNNMDFSIRISSITPADVGTYYCIKFRKGTPEDVEFKSGPGTEMALGAKPSDKTHTCPPCPAPEAAGAPSVFLFPPKPKDTLMISRTPEVTCVVVDVSHEDPEVKFNWYVDGVEVHNAKTKPREEQYASTYRVVSVLTVLHQDWLNGKEYKCKVSNKALPAPIEKTISKAKGQPREPQVYTLPPSREEMTKNQVSLTCLVKGFYPSDIAVEWESNGQPENNYKTTPPVLDSDGSFFLYSKLTVDKSRWQQGNVFSCSVMHEALHNHYTQKSLSLSPG
B2: Decoy polypeptide N (Fc fusion)
chain: B1 chain with I6M, T98I
B3: Decoy polypeptide S (Fc fusion)
chain: EDELQVIQPEKSVSVAAGESATLRCAMTSLIPVGPIMWFRGAGAGRELIYNQKEGHFPRVTTVSELTKRNNLDFSISISNITPADAGTYYCVKFRKGSPDDVEFKSGAGTELSVRAKPSDKTHTCPPCPAPEAAGAPSVFLFPPKPKDTLMISRTPEVTCVVVDVSHEDPEVKFNWYVDGVEVHNAKTKPREEQYASTYRVVSVLTVLHQDWLNGKEYKCKVSNKALPAPIEKTISKAKGQPREPQVYTLPPSREEMTKNQVSLTCLVKGFYPSDIAVEWESNGQPENNYKTTPPVLDSDGSFFLYSKLTVDKSRWQQGNVFSCSVMHEALHNHYTQKSLSLSPG
notes: also called wild type SIRPβ1
B4: Decoy polypeptide R (Fc fusion)
chain: EEELQMIQPEKLLLVTVGKTATLHCTVTSLLPVGPVLWFRGVGPGRELIYNQKEGHFPRVTTVSDLTKRNNMDFSIRISSITPADVGTYYCVKFRKGSPENVEFKSGPGTEMALGAKPSDKTHTCPPCPAPEAAGAPSVFLFPPKPKDTLMISRTPEVTCVVVDVSHEDPEVKFNWYVDGVEVHNAKTKPREEQYASTYRVVSVLTVLHQDWLNGKEYKCKVSNKALPAPIEKTISKAKGQPREPQVYTLPPSREEMTKNQVSLTCLVKGFYPSDIAVEWESNGQPENNYKTTPPVLDSDGSFFLYSKLTVDKSRWQQGNVFSCSVMHEALHNHYTQKSLSLSPG
notes: also called wild type SIRPγ
B5: Decoy polypeptide K (Fc fusion)
chain: B1 chain with I27L, F31L, Q37L, A42V, I92V, T98N
B6: Decoy polypeptide M (Fc fusion)
chain: B1 chain with V33I, Q37L, A42V, R53K, I92V, T98S
B7: Decoy polypeptide I (Fc fusion)
chain: B1 chain with A42V, D54E, I92V, T98S
B8: Decoy polypeptide T (Fc fusion)
chain: EEELQVIQPDKSISVAAGESATLHCTVTSLIPVGPIQWFRGAGPGRELIYNQKEGHFPRVTTVSDLTKRNNMDFSIRISNITPADAGTYYCVKFRKGSPDHVEFKSGAGTELSVRAKPSDKTHTCPPCPAPEAAGAPSVFLFPPKPKDTLMISRTPEVTCVVVDVSHEDPEVKFNWYVDGVEVHNAKTKPREEQYASTYRVVSVLTVLHQDWLNGKEYKCKVSNKALPAPIEKTISKAKGQPREPQVYTLPPSREEMTKNQVSLTCLVKGFYPSDIAVEWESNGQPENNYKTTPPVLDSDGSFFLYSKLTVDKSRWQQGNVFSCSVMHEALHNHYTQKSLSLSPG
notes: also called wild type SIRPβ2

Key:
[1] = molecular target: T2, human CD47 (human, UniProt Q08722 19-135); assay: SPR, decoy captured on biotinylated Protein A (NLC chip), CD47 as analyte
T2 construct: Soluble analyte in SPR; also called hCD47
Description: (§1) The binding affinities each decoy polypeptides for CD47 from various species (e.g., human CD47, cynomolgus monkey CD47, and mouse CD47) were determined using indirect capture via biotinylated Protein A (via NLC chip). All experiments were performed at 25° C. using a Surface Plasmon Resonance (SPR)-based ProteOn XPR36 biosensor (BioRad, Inc., Hercules, Calif.). The running buffer was PBS at pH 7.4 with 0.01% Tween-20 (PBST+). All analytes were used at their nominal concentrations as determined by A₂₈₀ absorbance and using their molar calculated extinction coefficients.
(§2) As a first step, 15 μg/mL biotinylated protein A (Thermofisher) was injected at 30 μL/min for 120 seconds over the NLC chip to obtain an immobilization response of about 1000-1200 RUs. Next, decoy polypeptides (about 100-160 nM) were injected for 80 seconds at 30 μL/min. The CD47 analytes (from human, cynomolgus monkey, and mouse) were subsequently injected in a “one-shot” kinetic mode at nominal concentrations of 100 nM, 33 nM, 11 nM, 3.7 nM, 1.2 nM, and 0 nM. Association times were monitored for 60 seconds at 25 μL/min, and dissociation times were monitored for 500 seconds. The surfaces were regenerated with a 2:1 v/v blend of Pierce IgG elution buffer/4M NaCl. Biosensor data were double-referenced by subtracting the interspot data (containing no immobilized protein) from the reaction spot data (immobilized protein) and then subtracting the response of a buffer “blank” analyte injection from that of an analyte injection. Double-referenced data were fit globally to a simple Langmuir model and the KD value was calculated from the ratio of the apparent kinetic rate constants (KD=kd/kₐ).

[2] = molecular target: T2, human CD47; assay: as above; remark: listed apart in the source
[3] = molecular target: T3, cynomolgus monkey CD47 (cynomolgus monkey, UniProt A0A2K5X523 19-135); assay: as above
T3 construct: Soluble analyte in SPR; construct not described; also called Cyno CD47

[4] = molecular target: T1, mouse CD47; assay: as above
[5] = molecular target: T2, human CD47; assay: SPR; the reference itself (wild type SIRPγ D1 domain)
[6] = molecular target: T2, human CD47; assay: SPR, decoy captured on biotinylated Protein A, CD47 as analyte, 25 C
Description: as §1, §2

[7] = molecular target: T2, human CD47; assay: as above; remark: listed apart in the source
Description: as §1, §2

T2 sequence (Q08722 other isoform, or with tags, fused parts or gaps limits assumed): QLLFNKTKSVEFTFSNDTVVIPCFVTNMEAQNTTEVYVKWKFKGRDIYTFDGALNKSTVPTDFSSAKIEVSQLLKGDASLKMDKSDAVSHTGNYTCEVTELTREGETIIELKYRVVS

| Binder | binding result [1] | binding result [3] | binding result [4] | other results |
| --- | --- | --- | --- | --- |
| B1 | no binding (tested: CD47 analyte up to 100 nM) |  |  |  |
| B2 | no binding (tested: CD47 analyte up to 100 nM) |  |  |  |
| B3 |  | no binding (tested: CD47 analyte up to 100 nM) | no binding (tested: CD47 analyte up to 100 nM) | binding result [2]: no binding (tested: CD47 analyte up to 100 nM) |
| B4 |  | no binding (tested: CD47 analyte up to 100 nM) | no binding (tested: CD47 analyte up to 100 nM) | Fold improvement in KD vs wild type [5]: 1 fold; Kd [6]: 2190 nM; Kd [7]: 2190 nM |
| B5 | no binding (tested: CD47 analyte up to 100 nM) |  |  |  |
| B6 | no binding (tested: CD47 analyte up to 100 nM) |  |  |  |
| B7 | no binding (tested: CD47 analyte up to 100 nM) |  |  |  |
| B8 |  | no binding (tested: CD47 analyte up to 100 nM) | no binding (tested: CD47 analyte up to 100 nM) | binding result [2]: no binding (tested: CD47 analyte up to 100 nM) |
